# A protein production outcome set (Wang et al. 2014)
# Assay: label from the status in PepcDB records
row,Sequence,protein production
1,MGIRRLVSVITRPIINKVNSSGQYSRVLATREDQDKASPKYMNNDKIAKKPYTYRLFSILGILSICSLLLISLLKPFNGADAPQCESIYMFPSYARIDGFDERYTPLAHKYHLYLYREQSVDREPLNGDELQLDGIPVLFIPGNAGSFRQCRSIASACSNIYFDSNTRATLRNENVRNLDFFTADFNEDFTAFHGETMLDQAEYLNDAIKYILSLYERTPDYPHPKPQSVIIVGHSMGGIVSRVMLTLKNHVPGSISTILTLSSPHAASPVTFDGDILKLYKNTNEYWRKQLSQNDSFFSKNISLVSITGGILDTTLPADYASVEDLVSLENGFTSFTTTIPDVWTPIDHLAIVWCKQLREVLARLLLESIDASKPEKVKPLNQRLQIARKLLLSGFEDYSWMNSKLNYPQENLQEFSDNFFSDYATLEMNDVLDFEMFNLEKWHNNYTKINIPSNISSTEHLHFTLLTSLDMPMIYFCTESRVNLSCITAVDSILTVPRSSKDTQFAADSSFGEAKNPFKAVSVGKNILQKYDYLMISKPTYGEFSEQEGMEDNQGFLLALLRNVSNVQIVNTTPSQILLFGEQLHLDGKDIEQVISFSNLWDSLLSYKLETKIEASNEGIASEETLFQPFIRQWVYEPFESKWHLNIINKSLDINMHNVAPFIPLNESEPRSLQLSFFIPPGMSLEAKMTINWSLTLKMLFIRYRLALASFPVAFIALVLSYQFYWYNKTSEFPSFDSTLGYILRKHGILMFFTLFLASPVVNNKLVQRILYLLDPVGLNYPFLLSERNMHANFYYLGIRDWFMSTIGILFGVMTVGLLALVSKIFGSLEILVIFLQRKLSKKNTEDKEAFDTIEHKAYGKGRLMASVLLLLLVFFHIPYQMAFVISLVIQIATCIRVALLKLSNNEQKLNLLNYNMTLLLLLLFVSAINIPIIIVFLHNVAIKWETSFRSHHNILAVAPIIFLVGNNSIFKMPNSVPLDTWDGKVTIILFVYLTVFSFIYGIRNLYWIHHLVNIICAWLLFFETIH,failed
2,MGISNWQPTMRAACWMSGALVSLLAMAVATRELSAHVSVFQILFFRSACGLLIIVPLVWRAGWRKVATARPGLHVLRNATHFLAQYGWVYGIAFIPMAEVFAIEFTVPVWTALLAAVLLGERLTAARLLAVALGLAGVFVIVRPGSGMIHPAALAVLLGAVAFALAYIMTKMLARTETPLCILFYMTLVQLPLGLAPALANWSSPPPHVWPWILVVGTMGLATHYCLARAMALADATVVVPLDFLRLPLIAVVGAVFYGEAIEPLLFLGAGMILAGNLYSILAERRRPAMPRAARDGSH,failed
3,MGKEYVVIGLGRFGGSIVRELNALDMDVMAIDHDENRVNEYSDIATHAVVADTTDEAVMKSLGIRNFDHVIVAIGENIQSSTLTTLILKELGVKKVTAKAQNDYHAKILNKIGADTVVHPERDMGRRIAHNVASASVLDYLELADEHSIVELKATEKMAGQSIIDLDIRAQYGINIIAIKRGKEFIISPNPNINLEIGDILIMIGHDNDLNRFEKNIATR,failed
4,MGKFTQRLSLRVRLTLIFLILASVTWLLSSFVAWKQTTDNVDELFDTQLMLFAKRLSTLDLNEINAADRMAQTPNRLKHGHVDDDALTFAIFTHDGRMVLNDGDNGEDIPYSYQREGFADGQLVGEDDPWRFVWMTSPDGKYRIVVGQEWEYREDMALAIVAGQLIPWLVALPIMLIIMMVLLGRE,not failed
5,MGKGGDIVVGNGKKYAAPLLVLGCVVFGLGSLIVRSVPVGSYAIAFWRLLISVFVFWFLARFFRQKFPKNRKTVRYALTAGVFLAFDLALWHESIHAVGPGISTLLNSLQIFFLSAIGVFFFGERLSGLKKAGLISAVAGVAMIAGAEFGYNGNAVWGFASGLVSGLMLALSMVFVRKTHEIEPVALFPSMMILSLGGAVSLVVPALLMDGGALYPTTWKDAGLVLVYGVVMQCFAWAMVAYAIPLLSLSLTGLLLLSEPVAALFIDYFGLGKPIEGVQWAGVALTLSAIYLGSLKRQSSH,failed
6,MGKMRTPQEVPARLDALAEAARKLKFDVREPVDAGAGAIGAVHSLDYLRFLREAHARWKQLPDDWGDEVVSNVFVREPNALRGVLAQAARYLADGSCPVGPHTWQSAYWAAQCAISGAQTLLDGERHAYALCRPPGHHARRDAAGGFCYLNNAAIAAQMLTQRYKRVAILDTDMHHGQGIQEIFYERSDVLYVSIHGDPENFYPVVAGFENERGAGEGYGYNVNLPMPHGSPEPVFFDRLQQAQRAIELFQPDALVLSLGFDVFEKDPQAMVAVSANGFERLGQAIGAFKLPTLIVQEGGYYIEGLEDNAERFFAGLAKALEHHHHHH,failed
7,MGKRIAFWFEFASTYSYLSAMRIERAAADLGVTIAWEPFLLGPIFAAQGWTSSPFNLFPAKGRYMWRDMERLCARQGLPLTRPDPFPQNGLPAARLAMVAREMGHIAPFVRAVYAAQFGRGLVISDPQVLAECWAEAGLPPEAMEQAKSPEIKAALFAQGERAAALDLFGAPSFVVGEEVFWGDDRLDQALALAAQS,not failed
8,MGKSIPVKTGLRGASAAVAGFIKSSKPIRPISSMDSSDKDSSSTTTTSETTRRFVPLSSVVSDCAKRWFKDTLEEAKAGNITMQVLLGQMYYSGYGVPKDARKVSSLFPPFQSLLFQVLGYNASDSDSESD,failed
9,MGKVYKKVELVGTSEEGLEAAIQAALARARKTLRHLDWFEVKEIRGTIGEAGVKEYQVVLEVGFRLEET,not failed
10,MGLALCGAAAQAQEKPNFLIIQCDHLTQRVVGAYGQTQGCTLPIDEVASRGVIFSNAYVGCPLSQPSRAALWSGMMPHQTNVRSNSSEPVNTRLPENVPTLGSLFSESGYEAVHFGKTHDMGSLRGFKHKEPVAKPFTDPEFPVNNDSFLDVGTCEDAVAYLSNPPKEPFICIADFQNPHNICGFIGENAGVHTDRPISGPLPELPDNFDVEDWSNIPTPVQYICCSHRRMTQAAHWNEENYRHYIAAFQHYTKMVSKQVDSVLKALYSTPAGRNTIVVIMADHGDGMASHRMVTKHISFYDEMTNVPFIFAGPGIKQQKKPVDHLLTQPTLDLLPTLCDLAGIAVPAEKAGISLAPTLRGEKQKKSHPYVVSEWHSEYEYVTTPGRMVRGPRYKYTHYLEGNGEELYDMKKDPGERKNLAKDPKYSKILAEHRALLDDYITRSKDDYRSLKVDADPRCRNHTPGYPSHEGPGAREILKRK,not failed
11,MGLCVSVNRNEYVSSSTTAKIVTINGDLREYDVPVLASQVLESESTSSSSSSSSSSYFLCNSDSLYYDDFIPAIESDEILQANQIYFVLPISKRQYRLSASDMAALAVKASVAIEKAAGKKNRRRRSGRISPVVTLNQANDNRIAAVNNRIGGEATNMMMQKGKLPNRTTPFKDTNGYSRSGSVRKLKRYTSGRAKLAVRSFRLRLSTIYEGSSFN,failed
12,MGLFDFLKKGLQKTKETFFGRVVKLLKGKKLDDETREELEELLIQADVGVETTEYILERLEEKDGDALESLKEIILEILNFDTKLNVPPEPPFVIMVVGVNGTGKTTSCGKLAKMFVDEGKSVVLAAADTFRAAAIEQLKIWGERVGATVISHSEGADPAAVAFDAVAHALARNKDVVIIDTAGRLHTKKNLMEELRKVHRVVKKKIPDAPHETLLVIDATTGQNGLVQAKIFKEAVNVTGIILTKLDGTAKGGITLAIARELGIPIKFIGVGEKAEDLRPFDPEAFVEVLLSE,not failed
13,MGLFLEDLAVGDRFDSARHRVEAAAIKAFAGEFDPQPFHLDEEAARHSLFGGLAASGWHTAAITMRLLVTSGLPLAQGIIGAGTELSWPNPTRPGDELHVETTVLAITPSKSRPDRAIVTCQSDTLNQRGEVVQRSTAKVVVFRRPLEHHHHHH,not failed
14,MGLFQSDKAAEEIDPPQDVTFVNDEAGANSNTTAAKKTESEKSDTAKADQASSTVMRELYLIDKNGYVVAQTLPLPKSESTAKQALEYLVQGGPVSEILPNGFRAVLPADTTVNVDIKKDGTAIADFSNEFKNYKKEDEQKIVQSVTWTLTQFSSIDKVKLRINGHELKEMPVGGTPISDDLSRKDGINLETAGVNDLTATHPLTVYYLAENEDSEYYVPVTKRIDNSEKDDITAAINELAKGPSKVSGLLTDFSEDVKLVSKPKIKDGRVTLDFNQSIFGSADEKTKMISSEVLNSIVLTLTEQPDVKSVSVKVNGKSELVNEKGEKLTEPVSRPSQVNTGSFLEHHHHHH,not failed
15,MGLGMEIGKLIVAFLVLINPFSALSLYLDLTNGHSTKERRKVARTAAVAVFAVIAVFALIGGALLKVLGISVGSFQVGGGILVLLIAISMMNGNDNPAKQNLGAQPETGQARPARNAGAIAVVPIAIPITIGPGGISTVIIYASAAKTYSDIALIIAAGLVVSAICYAILIVAGKVSRLLGATGLTILNRIMGMMLAAVSVEIIVSGLKTIFPQLAG,failed
16,MGLIARLRRWYHLWVWRLRYWWYDTPSGVCAQHWAQGLGVLVFIVQLVRVWVAAALPAPHGAPAQAVYWWVWQLAIAVVAAYVSAALRPKPESVKPQQAQVPTVQDGQAVKHHFGTVWVGDEFILAWKMQGAIPIKTKGAGC,failed
17,MGLKGYSVGEGGGEIVEVQGGHIIRATGRKDRHSKVFTSKGPRDRRVRLSAHTAIQFYDVQDRLGYDRPSKAVDWLIKKAKTAIDKLELGETTTTTTRQEPVNTKPESPTLVFQRENNDQTQFVAANLDPEDAMKTFFPATTTTNGGGGTNINFQNYPHQDDNNMVSRTTTPPPNLSQDLGLSLHPFQGNNNTVVVPETNNFTTTHFDTFGRISGWNHHDLTMTSSSSSEHQQQEQEERSNGGFMVNHHPHHHHHQPSMMTLLNSQQQQVFLGGQQQQQQRGTLQSSLFPHSFRSWDHHQTTSDHHHHQNQASSMFASSSQYGSHGMMMMQGLSFPNTTRLLHGEEATQPNSSSSPPNSHL,failed
18,MGLKPSEVIELWPVKIFFIILSVTLFYNFALANGALEKLASHLLYKCRKFPQFLPLAIFFAATIIAGLGAGFYTVLAFMAPITLLLCKKTNMNMIIGGMAANYGALAGANFMTSQSGIIFRSLMENTGISSQTAFSYSSGIFVLTLIIPIAVLGIYTLWNRKSNSIVIEDQKPEPFDKKQKQSIFLIILMMSIVLVFPILHLVFPDVKTISFLNSKIDIAFLAITFSLISLLMKLADEKKVIALVPWRTLIMICGVGMLIALGVKLGIITTLSEWLANNVPVWVIPVLLCLISAIMSVFSSTLGVVAPTLFPIVPALALTSGLNPLVLFICIVVGAQSTAISPFSSGGSLIMASAPADIDKTKFFNQLLFKAIPVGVIAALIAIFALKFVI,failed
19,MGLKQTLKEIYYIVADKRLLYFSLSLGISTFAYSLLTYYFPIIMTNLDITTFTIGIIYSIISFLYVVFNIPLGAIVDKIGSKNAVTLSALMAVPLFLLMGTLNPLLFIISLVIFESVIRIVNSLGAHRFMLNYTNAGKAFGVFSLITSILAAIGIMLGGYLLQHSVSTLLFTIIAVLFGISGIIRFLELPKDENKVEVKRSLRLGFKYLKEDKKLLLYLLVSILSSGLSLETYYVTIYFVKDLLLPLTFVGVLYSSYALIMAFLPLLFSVILSKRSNFKNLSILIFSNSVIFFLVPLFTNVYILFLLFYAWTVIVAMESIVDYNVAQSVTKPEIRGTQVALISTFVRIFSVFYNAIVGLLFQITPLYSFYFTGFLGILAIFTIKFAEFIGVLK,failed
20,MGLLVILNIVMRIPSIPHEKGYDSFFIHSLANSVANFGVAQWWINWMSVFGLYPYSYASAVPFTLSGMSQLTGIRMEIVILLFCVLLGLFSIFASYSLATVLYDNFLHRFLFAVIFSSSAGTLNLTTWEITTRAQILVFFPFLLYLLFQIIKFKTKFVMLFIVTALLLLATHHFVYMGLFYSGLIFIVALIYKLNRNQPFQIQKTQLRNINLNYMYISSVFFLIILIFLYGSKWGLITSGSRYAWIIDILMITGRNVGLTLLLSIGALIYYIFKKDKLLDEWAILICLIPTLIFSFNQTYGYLTTYLFVTLLGSAGLFNVIKNQKQNRKVVAATVVILIILNITFSTFFVHYRLGIGGGNSEWYMSEETYNTGEWIKENISWDKKAVSNSMQGNRLFASYGGQPVLYRDDISNYMNGFVTLNESKIEKKSPFSKSFYLDNPYVLKSGTTTSGLYSWISQYPITSENSQNFINGNNISYFYDDSLNYNRLFGSLPQSKNSIYNSGRMRIWEN,failed
